Results from article PMC11014265.
Read-outs that look alike come from different tables or passages of the source.

Assays:
Experiment in all cases: fluorescence anisotropy
HrpA75-758 (no APHB) [1] = molecular target: T1, HrpA75-758 (no APHB) (Escherichia coli, UniProt P43329 75-758)
T1 sequence: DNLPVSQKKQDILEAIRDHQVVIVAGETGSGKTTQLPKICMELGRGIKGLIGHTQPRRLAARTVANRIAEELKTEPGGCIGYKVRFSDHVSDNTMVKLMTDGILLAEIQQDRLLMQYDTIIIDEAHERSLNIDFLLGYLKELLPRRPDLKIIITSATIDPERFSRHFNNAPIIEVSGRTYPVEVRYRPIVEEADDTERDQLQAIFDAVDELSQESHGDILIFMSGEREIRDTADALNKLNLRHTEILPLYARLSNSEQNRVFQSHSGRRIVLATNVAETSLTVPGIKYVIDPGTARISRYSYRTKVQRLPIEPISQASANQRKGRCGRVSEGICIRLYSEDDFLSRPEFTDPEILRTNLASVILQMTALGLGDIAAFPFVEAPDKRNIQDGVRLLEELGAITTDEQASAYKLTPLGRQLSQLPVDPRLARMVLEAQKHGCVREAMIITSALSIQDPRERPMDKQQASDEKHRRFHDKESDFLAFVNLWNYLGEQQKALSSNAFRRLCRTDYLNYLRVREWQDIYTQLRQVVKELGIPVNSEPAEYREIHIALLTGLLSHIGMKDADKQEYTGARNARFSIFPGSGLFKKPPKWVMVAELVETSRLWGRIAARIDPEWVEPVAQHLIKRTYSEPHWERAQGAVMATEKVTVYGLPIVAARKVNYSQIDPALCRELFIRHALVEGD

HrpA75-1300 (no APHB) [2] = molecular target: T2, HrpA75-1300 (no APHB) (Escherichia coli, UniProt P43329 75-1300)
T2 sequence: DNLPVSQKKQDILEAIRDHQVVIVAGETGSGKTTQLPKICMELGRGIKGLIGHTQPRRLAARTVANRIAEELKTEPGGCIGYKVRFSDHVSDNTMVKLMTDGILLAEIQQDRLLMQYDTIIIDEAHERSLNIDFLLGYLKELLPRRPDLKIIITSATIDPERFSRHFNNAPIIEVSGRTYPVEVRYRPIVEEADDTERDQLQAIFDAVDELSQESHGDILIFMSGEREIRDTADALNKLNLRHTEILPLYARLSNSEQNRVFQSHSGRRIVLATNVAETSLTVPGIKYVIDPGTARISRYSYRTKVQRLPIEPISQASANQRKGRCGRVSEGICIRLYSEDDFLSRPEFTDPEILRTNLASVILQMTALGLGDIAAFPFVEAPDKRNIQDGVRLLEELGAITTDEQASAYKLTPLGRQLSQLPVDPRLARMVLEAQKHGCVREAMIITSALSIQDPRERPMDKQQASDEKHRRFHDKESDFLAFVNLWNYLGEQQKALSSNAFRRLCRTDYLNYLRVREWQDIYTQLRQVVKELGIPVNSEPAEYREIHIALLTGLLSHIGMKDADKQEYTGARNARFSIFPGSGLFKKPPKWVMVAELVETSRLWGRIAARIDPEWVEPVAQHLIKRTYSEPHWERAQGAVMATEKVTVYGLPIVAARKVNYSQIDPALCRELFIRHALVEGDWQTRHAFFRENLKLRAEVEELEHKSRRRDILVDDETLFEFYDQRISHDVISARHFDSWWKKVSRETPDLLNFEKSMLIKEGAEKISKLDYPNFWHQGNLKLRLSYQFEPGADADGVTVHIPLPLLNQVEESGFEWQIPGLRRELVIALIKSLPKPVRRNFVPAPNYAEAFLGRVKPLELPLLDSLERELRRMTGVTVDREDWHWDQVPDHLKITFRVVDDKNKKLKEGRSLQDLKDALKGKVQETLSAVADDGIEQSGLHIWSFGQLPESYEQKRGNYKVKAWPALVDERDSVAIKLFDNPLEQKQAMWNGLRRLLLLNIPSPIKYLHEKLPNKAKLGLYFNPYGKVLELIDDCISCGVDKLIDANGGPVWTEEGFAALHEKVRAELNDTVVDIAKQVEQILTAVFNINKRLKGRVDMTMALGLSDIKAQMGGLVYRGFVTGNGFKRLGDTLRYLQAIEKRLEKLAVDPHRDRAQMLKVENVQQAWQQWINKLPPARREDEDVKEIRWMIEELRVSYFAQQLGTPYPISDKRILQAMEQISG

HrpA1-1300 (full-length) = molecular target: T3, HrpA1-1300 (full-length) (Escherichia coli, UniProt P43329 1-1300)
T3 sequence: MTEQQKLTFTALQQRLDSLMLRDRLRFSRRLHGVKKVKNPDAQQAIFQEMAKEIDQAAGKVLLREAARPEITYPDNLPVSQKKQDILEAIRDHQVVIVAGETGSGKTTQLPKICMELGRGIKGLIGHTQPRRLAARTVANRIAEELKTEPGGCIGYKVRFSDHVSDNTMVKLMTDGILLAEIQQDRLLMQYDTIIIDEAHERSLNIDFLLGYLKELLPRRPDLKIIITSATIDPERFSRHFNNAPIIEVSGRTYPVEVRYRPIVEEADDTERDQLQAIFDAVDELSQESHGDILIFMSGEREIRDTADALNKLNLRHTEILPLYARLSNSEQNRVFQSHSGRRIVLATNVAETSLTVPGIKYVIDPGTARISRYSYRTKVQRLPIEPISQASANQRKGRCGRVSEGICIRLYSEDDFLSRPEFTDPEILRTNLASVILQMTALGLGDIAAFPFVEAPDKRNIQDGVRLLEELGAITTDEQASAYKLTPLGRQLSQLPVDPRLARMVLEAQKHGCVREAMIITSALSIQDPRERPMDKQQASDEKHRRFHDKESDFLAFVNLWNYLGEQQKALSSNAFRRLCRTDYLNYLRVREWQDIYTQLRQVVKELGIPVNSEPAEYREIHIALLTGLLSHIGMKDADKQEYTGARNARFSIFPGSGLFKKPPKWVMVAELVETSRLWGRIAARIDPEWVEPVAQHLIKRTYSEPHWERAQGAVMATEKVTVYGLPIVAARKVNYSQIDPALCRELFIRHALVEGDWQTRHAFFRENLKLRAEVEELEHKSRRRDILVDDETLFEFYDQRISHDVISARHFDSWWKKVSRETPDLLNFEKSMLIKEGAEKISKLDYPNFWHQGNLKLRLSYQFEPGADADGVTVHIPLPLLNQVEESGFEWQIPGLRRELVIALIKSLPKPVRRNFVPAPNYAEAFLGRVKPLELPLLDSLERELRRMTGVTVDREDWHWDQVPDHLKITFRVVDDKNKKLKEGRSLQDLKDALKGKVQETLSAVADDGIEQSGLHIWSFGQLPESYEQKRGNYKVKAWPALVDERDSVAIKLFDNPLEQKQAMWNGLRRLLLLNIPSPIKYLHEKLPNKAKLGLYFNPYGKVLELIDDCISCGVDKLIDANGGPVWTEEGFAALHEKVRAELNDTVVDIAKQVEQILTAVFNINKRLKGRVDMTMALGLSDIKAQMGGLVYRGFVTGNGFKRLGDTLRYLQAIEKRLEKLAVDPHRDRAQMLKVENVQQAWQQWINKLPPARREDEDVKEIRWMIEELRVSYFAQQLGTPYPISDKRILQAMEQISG

HrpA75-758 (no APHB) [3] = molecular target: T1, HrpA75-758 (no APHB); remark: listed apart in the source
HrpA75-1300 (no APHB) [4] = molecular target: T2, HrpA75-1300 (no APHB); remark: listed apart in the source
HrpA1-1300 E49A [5] = molecular target: T4, HrpA1-1300 E49A (Escherichia coli, UniProt P43329 1-1300, E49A)
T4 sequence: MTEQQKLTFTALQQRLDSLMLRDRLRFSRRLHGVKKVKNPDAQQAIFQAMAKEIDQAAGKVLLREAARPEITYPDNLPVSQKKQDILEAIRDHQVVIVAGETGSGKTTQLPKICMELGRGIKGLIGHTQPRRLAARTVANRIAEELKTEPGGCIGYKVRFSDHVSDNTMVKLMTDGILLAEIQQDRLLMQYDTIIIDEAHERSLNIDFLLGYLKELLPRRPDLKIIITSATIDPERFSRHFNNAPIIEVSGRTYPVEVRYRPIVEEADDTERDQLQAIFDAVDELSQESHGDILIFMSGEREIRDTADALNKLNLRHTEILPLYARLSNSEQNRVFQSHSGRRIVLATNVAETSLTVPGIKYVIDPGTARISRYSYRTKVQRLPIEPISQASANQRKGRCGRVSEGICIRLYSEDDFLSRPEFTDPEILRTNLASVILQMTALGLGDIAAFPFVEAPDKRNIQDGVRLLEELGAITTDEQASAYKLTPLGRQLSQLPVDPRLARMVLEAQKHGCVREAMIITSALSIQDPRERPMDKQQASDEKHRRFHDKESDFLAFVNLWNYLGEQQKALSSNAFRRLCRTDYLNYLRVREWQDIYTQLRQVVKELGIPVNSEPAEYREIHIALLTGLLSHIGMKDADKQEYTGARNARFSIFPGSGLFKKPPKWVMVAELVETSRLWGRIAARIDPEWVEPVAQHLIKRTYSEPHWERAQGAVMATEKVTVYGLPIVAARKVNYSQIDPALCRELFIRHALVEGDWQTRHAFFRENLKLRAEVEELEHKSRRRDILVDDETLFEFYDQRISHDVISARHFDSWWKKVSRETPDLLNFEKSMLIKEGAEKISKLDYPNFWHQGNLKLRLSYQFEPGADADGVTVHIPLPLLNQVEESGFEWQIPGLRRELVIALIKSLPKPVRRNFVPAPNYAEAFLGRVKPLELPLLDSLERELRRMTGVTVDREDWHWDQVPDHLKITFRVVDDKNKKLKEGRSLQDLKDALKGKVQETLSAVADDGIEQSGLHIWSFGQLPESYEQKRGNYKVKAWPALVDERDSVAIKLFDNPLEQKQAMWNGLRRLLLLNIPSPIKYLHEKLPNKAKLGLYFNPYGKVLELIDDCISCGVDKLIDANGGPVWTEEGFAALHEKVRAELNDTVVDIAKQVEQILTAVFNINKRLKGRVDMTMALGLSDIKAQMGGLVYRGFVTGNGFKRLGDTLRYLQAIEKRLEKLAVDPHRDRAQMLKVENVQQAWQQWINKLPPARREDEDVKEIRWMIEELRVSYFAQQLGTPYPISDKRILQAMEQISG

HrpA75-1300 (no APHB) [6] = molecular target: T2, HrpA75-1300 (no APHB); remark: listed apart in the source
HrpA1-1300 E49A [7] = molecular target: T4, HrpA1-1300 E49A; remark: listed apart in the source
HrpA75-1300 (no APHB) [8] = molecular target: T2, HrpA75-1300 (no APHB); remark: listed apart in the source
HrpA75-1300 (no APHB) [9] = molecular target: T2, HrpA75-1300 (no APHB); remark: listed apart in the source
HrpA75-1300 (no APHB) [10] = molecular target: T2, HrpA75-1300 (no APHB); remark: listed apart in the source

With GUGUGUGUGUGU (ssRNA) [R-G-rich] the binding signal (HrpA75-758 (no APHB) [1]) was > 3 fold reduction and the binding signal (HrpA75-1300 (no APHB) [2]) was > 9 fold reduction.

TTTTTTTTTTTT (ssDNA) [D-T12] was tested, and the Kd (HrpA1-1300 (full-length)) was 307 nM.

In the case of UUUUUUUUUUUU (ssRNA) [R-U12], the binding signal (HrpA75-758 (no APHB) [3]) is reported as > 3 fold reduction and the binding signal (HrpA75-1300 (no APHB) [4]) is reported as > 2 fold reduction.

CCCCCCCCCCCC (ssDNA) [D-C12]: binds (HrpA1-1300 E49A [5]); no binding (HrpA75-1300 (no APHB) [6]).

GTGTGTGTGTGT (ssDNA) [D-G-rich]: binds (HrpA1-1300 E49A [7]); no binding (HrpA75-1300 (no APHB) [8]).

CCCCCCCCCCCC (ssRNA) [R-C12] was tested, and the binding signal (HrpA75-758 (no APHB) [3]) was > 3 fold reduction and the binding signal (HrpA75-1300 (no APHB) [9]) was > 9 fold reduction.

For AAAAAAAAAAAA (ssRNA) [R-A12], the binding signal (HrpA75-1300 (no APHB) [10]) was > 3 fold reduction and the binding signal (HrpA75-758 (no APHB) [1]) was > 3 fold reduction.
